Target: human C5a receptor (C5aR) (human) (UniProt P21730)
Experiment: cell-based or functional assay

Chain of human C5a receptor (C5aR) (human) (P21730 whole entry): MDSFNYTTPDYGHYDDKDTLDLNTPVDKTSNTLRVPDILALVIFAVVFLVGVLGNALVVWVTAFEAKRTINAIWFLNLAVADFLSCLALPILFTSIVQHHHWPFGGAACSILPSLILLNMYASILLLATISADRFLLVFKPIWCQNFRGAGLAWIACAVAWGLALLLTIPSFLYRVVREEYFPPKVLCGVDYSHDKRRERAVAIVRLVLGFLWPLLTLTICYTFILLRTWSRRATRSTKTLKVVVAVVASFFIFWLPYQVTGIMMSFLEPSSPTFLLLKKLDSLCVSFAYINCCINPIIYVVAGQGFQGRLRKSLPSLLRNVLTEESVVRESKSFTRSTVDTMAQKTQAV

Substance | Chemotaxis IC50 [nM] | C5aR blocking activity (in neutrophils), % of wt CHIPS1-121 (% of wt CHIPS1-121) | IC50 of inhibition of calcium release, ratio to CHIPS1-121 (fold of the IC50 of CHIPS1-121) | IC50 of inhibition of neutrophil migration towards C5a, ratio to CHIPS1-121 (fold of the IC50 of CHIPS1-121) | concentration needed for 50% inhibition of calcium release (IC50), neutrophils stimulated with C5a [nM]
Wild-type CHIPS1-121 (Chemotaxis Inhibitory Protein of Staphylococcus aureus) (from UniProt A6QIG7 29-149) | 8.2 |  |  |  | 
ADC-1004 (from UniProt A6QIG7 59-138) | 49 | > 50 | 2 | 4 | 0.4

Reference: patent publication US20120071394A1
